In general, Km refers to the substrate concentration at which the rate is half of its maximum.

Substrate in the data set: N[C@@H](Cc1ccccc1)C(=O)O
Put plainly: Phe consumption by live engineered cells, Michaelis-Menten model. The data set is classed as cell-based, Photorhabdus laumondii. To be noted: apparent whole-cell pathway value (PheP uptake plus PAL), not purified enzyme; in vitro Phe consumption assays.

B1: phenylalanine ammonia lyase (PAL) (Photorhabdus laumondii subsp. laumondii TTO1) (protein)
chain: MKAKDVQPTIIINKNGLISLEDIYDIAIKQKKVEISTEITELLTHGREKLEEKLNSGEVIYGINTGFGGNANLVVPFEKIAEHQQNLLTFLSAGTGDYMSKPCIKASQFTMLLSVCKGWSATRPIVAQAIVDHINHDIVPLVPRYGSVGASGDLIPLSYIARALCGIGKVYYMGAEIDAAEAIKRAGLTPLSLKAKEGLALINGTRVMSGISAITVIKLEKLFKASISAIALAVEALLASHEHYDARIQQVKNHPGQNAVASALRNLLAGSTQVNLLSGVKEQANKACRHQEITQLNDTLQEVYSIRCAPQVLGIVPESLATARKILEREVISANDNPLIDPENGDVLHGGNFMGQYVARTMDALKLDIALIANHLHAIVALMMDNRFSRGLPNSLSPTPGMYQGFKGVQLSQTALVAAIRHDCAASGIHTLATEQYNQDIVSLGLHAAQDVLEMEQKLRNIVSMTILVVCQAIHLRGNISEIAPETAKFYHAVREISSPLITDRALDEDIIRIADAIINDQLPLPEIMLEE
notes: PAL genes inserted in chromosome of host E. coli Nissle 1917 strain SYN5183 (FNR and Ptac promoters), co-expressed with transporter PheP; live cells
As to B1, the Michaelis constant (Km) came to 200 µM.

For the origin of these results see paper PMC8121789, “Characterization of an engineered live bacterial therapeutic for the treatment of phenylketonuria in a human gut-on-a-chip” (Nature Communications, 2021).
